Measurements reported in paper PMC10821904 (2024).

How the values were obtained:
[1] = target: Full-length LayV-G (Langya henipavirus attachment glycoprotein G) (Langya henipavirus (LayV)); assay: cryo-EM structure
[2] = target: LayV-G extracellular domain (Langya henipavirus attachment glycoprotein G, residues 63-624) (Langya henipavirus (LayV)); assay: SEC + other: non-reducing and reducing SDS-PAGE
[3] = target: T1, human ephrinB3 extracellular domain (amino acids 1-224) (human, UniProt Q15768 28-224); assay: BLI
T1 chain: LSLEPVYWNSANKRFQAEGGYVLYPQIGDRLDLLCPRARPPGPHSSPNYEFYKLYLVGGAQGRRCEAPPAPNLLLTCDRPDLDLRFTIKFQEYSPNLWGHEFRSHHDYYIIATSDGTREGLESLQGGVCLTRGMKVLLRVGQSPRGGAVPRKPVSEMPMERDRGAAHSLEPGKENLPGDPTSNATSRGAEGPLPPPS

[4] = target: T2, human ephrinB2 extracellular domain (amino acids 1-227) (human, UniProt P52799 28-227); assay: BLI
T2 chain: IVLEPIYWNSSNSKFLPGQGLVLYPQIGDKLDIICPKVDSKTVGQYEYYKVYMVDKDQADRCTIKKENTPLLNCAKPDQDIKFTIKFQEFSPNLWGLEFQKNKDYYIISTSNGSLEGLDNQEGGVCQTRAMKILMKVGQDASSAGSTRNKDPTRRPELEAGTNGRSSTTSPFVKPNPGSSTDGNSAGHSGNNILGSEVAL

Full-length LayV-G (Langya henipavirus attachment glycoprotein G) (natural protein)
stoichiometry N [1]: 4

LayV-G extracellular domain (Langya henipavirus attachment glycoprotein G, residues 63-624) (domain or fragment)
stoichiometry N [2]: 4

B1: NiV-G ectodomain (Nipah virus attachment glycoprotein G) (domain or fragment)
chain: QNYTRSTDNQAVIKDALQGIQQQIKGLADKIGTEIGPKVSLIDTSSTITIPANIGLLGSKISQSTASINENVNEKCKFTLPPLKIHECNISCPNPLPFREYRPQTEGVSNLVGLPNNICLQKTSNQILKPKLISYTLPVVGQSGTCITDPLLAMDEGYFAYSHLERIGSCSRGVSKQRIIGVGEVLDRGDEVPSLFMTNVWTPPNPNTVYHCSAVYNNEFYYVLCAVSTVGDPILNSTYWSGSLMMTRLAVKPKSNGGGYNQHQLALRSIEKGRYDKVMPYGPSGIKQGDTLYFPAVGFLVRTEFKYNDSNCPITKCQYSKPENCRLSMGIRPNSHYILRSGLLKYNLSDGENPKVVFIEISDQRLSIGSPSKIYDSLGQPVFYQASFSWDTMIKFGDVLTVNPLVVNWRNNTVISRPGQSQCPRFNTCPEICWEGVYNDAFLIDRINWISAGVFLDSNQTAENPVFTVFKDNEILYRAQLASEDTNAQKTITNCFLLKNKIWCISLVEIYDTGDNVIRPKLFAVKIPEQCT
Kd [3]: 9.3 nM | Kd [4]: 0.19 nM
